Measurements: publication PMC4028186

Tests used:
[1] = target: 50S ribosomal subunit of E. coli (E. coli) (UniProt P0A7L0); test: stopped-flow Rayleigh light scattering of subunit association; naked 30S (0.25 µM final) mixed with 50S (0.25 µM final) preincubated with ObgE or ObgE-NG (0.5-20 µM in the mix); HEPES polymix buffer pH 7.5, 37°C; Ki from the midpoint of k obs against concentration
[2] = target: 50S ribosomal subunit of E. coli (E. coli) (UniProt P0A7L0); test: stopped-flow Rayleigh light scattering of subunit association; 30S-preIC (0.25 µM final; mRNA, fMet-tRNAfMet, IF1, IF2, GTP) mixed with 50S (0.25 µM final) preincubated with ObgE or ObgE-NG; HEPES polymix buffer pH 7.5, 37°C; Ki from the midpoint of k obs against concentration
[3] = target: 50S ribosomal subunit of E. coli (E. coli) (UniProt P0A7L0)
[4] = target: 50S ribosomal subunit of E. coli (E. coli) (UniProt P0A7L0); test: co-sedimentation; as a1, with 0.5 mM ppGpp

Sequence of UniProt P0A7L0 (P0A7L0 whole entry, looked up): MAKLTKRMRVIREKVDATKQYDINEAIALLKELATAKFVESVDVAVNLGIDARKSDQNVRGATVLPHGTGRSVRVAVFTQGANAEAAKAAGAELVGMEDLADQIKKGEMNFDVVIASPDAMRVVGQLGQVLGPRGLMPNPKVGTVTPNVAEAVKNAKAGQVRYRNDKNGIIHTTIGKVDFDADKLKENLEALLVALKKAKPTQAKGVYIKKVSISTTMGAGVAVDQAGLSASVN

Row | Ki [2] [nM] | Ki [1] [nM] | Substance | further results
1 |  |  | 30S ribosomal subunit of E. coli (naked 30S subunit) (complex) | k obs of subunit association (without ObgE) [1]: 4 s⁻¹
2 | 300 | 2000 | ObgE (Obg protein in Escherichia coli), full-length, His-tagged (from UniProt P42641 1-390) (enzyme) | GTP hydrolysis rate of ObgE (MESG assay, phosphate release) with increasing amounts of 50S subunits up to an equal amount; without 50S ∼0.0268 min^−1; stimulated about 120-fold [3]: 3.15 min⁻¹; fold occupancy on the 50S subunit against the apo state [4]: > 5 fold
3 | 1000 | 3700 | ObgE-NG (CTD deleted construct of ObgE, residues 1-340) (from UniProt P42641 1-340) (domain or fragment) | 
4 |  |  | mRNA programmed 30S-preinitiation complex (30S-preIC) (from UniProt P69222 1-72; P0A705 1-890) | k obs of subunit association (without ObgE) [2]: 20 s⁻¹
